# According to the supplement of paper PMC10567573:
# B1: DYRK1B (parent)
# chain: RFQDLVLRMLEYEPAARISPLGAL
# Variants of: B1
# Experiment: protein stability index of a GFP-peptide fusion (GPS, HEK-293T) (PSI 1-6); higher = more stable
# Details: c terminus: a fixed tail appended
# 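Further: lentivirally expressed fusions sorted by FACS into six bins by GFP to DsRed ratio, PSI derived from sequencing read proportions per bin multiplied by bin number.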
row,Variant,protein stability index
1,RFQDLVLRMLEYEPAARIQPLGAL [S19Q],1.55
2,RFQDLVLRMLEYEPAARIGPLGAL [S19G],1.07
3,RFQDLVLRMLEYEPAARIEPLGAL [S19E],3.96
4,RFQDLVLRMLEYEPAARILPLGAL [S19L],4.05
5,RFQDLVLRMLEYEPAARIKPLGAL [S19K],3.06
6,RFQDLVLRMLEYEPAARIDPLGAL [S19D],1.76
7,RFQDLVLRMLEYEPAARIYPLGAL [S19Y],3.82
8,RFQDLVLRMLEYEPAARIAPLGAL [S19A],1.17
9,RFQDLVLRMLEYEPAARIPPLGAL [S19P],2.61
10,RFQDLVLRMLEYEPAARIRPLGAL [S19R],2.38
11,RFQDLVLRMLEYEPAARIVPLGAL [S19V],2.91
12,RFQDLVLRMLEYEPAARISPLGAN [L24N],1.82
13,RFQDLVLRMLEYEPAARISPLGAA [L24A],2.93
14,RFQDLVLRMLEYEPAARISPLGAK [L24K],1.31
15,RFQDLVLRMLEYEPAARISPLGAF [L24F],1.95
16,RFQDLVLRMLEYEPAARISPLGAT [L24T],4.33
17,RFQDLVLRMLEYEPAARISPLGAS [L24S],2.08
18,RFQDLVLRMLEYEPAARISPLGAP [L24P],1.6
19,RFQDLVLRMLEYEPAARISPLGAI [L24I],4.35
20,RFQDLVLRMLEYEPAARISPLGAC [L24C],2.82
21,RFQDLVLRMLEYEPAARISPLGAG [L24G],1.35
22,RFQDLVLRMLEYEPAARISPLGAQ [L24Q],2.27
23,RFQDLVLRMLEYEPAARISPLGAE [L24E],2.36
24,RFQDLVLRMLEYEPAARISPLGAD [L24D],2.29

row,Variant,protein stability index
1,RFQDLVLRMLEYEPAARISPLGAH [L24H],2.36
2,RFQDLVLRMLEYEPAARISPLIAL [G22I],2.49
3,RFQDLVLRMLEYEPAARISPLCAL [G22C],1.86
4,RFQDLVLRMLEYEPAARISPLLAL [G22L],2.02
5,RFQDLVLRMLEYEPAARISPLMAL [G22M],2.2
6,RFQDLVLRMLEYEPAARISPLYAL [G22Y],1.71
7,RFQDLVLRMLEYEPAARISPLTAL [G22T],3.41
8,RFQDLVLRMLEYEPAARISPLVAL [G22V],3.1
9,RFQDLVLRMLEYEPAARISPLEAL [G22E],3.2
10,RFQDLVLRMLEYEPAARISPLFAL [G22F],2.04
11,RFQDLVLRMLEYEPAARISPLKAL [G22K],2.67
12,RFQDLVLRMLEYEPAARISPLDAL [G22D],2.68
13,RFQDLVLRMLEYEPAARISPLAAL [G22A],2.95
14,RFQDLVLRMLEYEPAARISPLHAL [G22H],1.52
15,RFQDLVLRMLEYEPAARISPLWAL [G22W],2.76
16,RFQDLVLRMLEYEPAARISWLGAL [P20W],3.32
17,RFQDLVLRMLEYEPAARISFLGAL [P20F],2.2
18,RFQDLVLRMLEYEPAARISILGAL [P20I],2.64
19,RFQDLVLRMLEYEPAARISELGAL [P20E],2.84
20,RFQDLVLRMLEYEPAARISGLGAL [P20G],2.01
21,RFQDLVLRMLEYEPAARISNLGAL [P20N],3.12
22,RFQDLVLRMLEYEPAARISVLGAL [P20V],3.27
23,RFQDLVLRMLEYEPAARISQLGAL [P20Q],2.29
24,RFQDLVLRMLEYEPAARISYLGAL [P20Y],4.39

row,Variant,protein stability index
1,RFQDLVLRMLEYEPAARISSLGAL [P20S],2.53
2,RFQDLVLRMLEYEPAARISCLGAL [P20C],3.75
3,RFQDLVLRMLEYEPAARISTLGAL [P20T],2.1
4,RFQDLVLRMLEYEPAARDSPLGAL [I18D],1.65
5,RFQDLVLRMLEYEPAARESPLGAL [I18E],2.06
6,RFQDLVLRMLEYEPAARMSPLGAL [I18M],2.17
7,RFQDLVLRMLEYEPAARRSPLGAL [I18R],1.15
8,RFQDLVLRMLEYEPAARHSPLGAL [I18H],1.23
9,RFQDLVLRMLEYEPAARPSPLGAL [I18P],1.98
10,RFQDLVLRMLEYEPAARTSPLGAL [I18T],1.3
11,RFQDLVLRMLEYEPAARLSPLGAL [I18L],2.33
12,RFQDLVLRMLEYEPAARGSPLGAL [I18G],1.27
13,RFQDLVLRMLEYEPAARNSPLGAL [I18N],1.23
14,RFQDLVLRMLEYEPAARFSPLGAL [I18F],2.3
15,RFQDLVLRMLEYEPAARSSPLGAL [I18S],2.1
16,RFQDLVLRMLEYEPAARQSPLGAL [I18Q],2.04
17,RFQDLVLRMLEYEPAARASPLGAL [I18A],1.41
18,RFQDLVLRMLEYEPRARISPLGAL [A15R],3.6
19,RFQDLVLRMLEYEPYARISPLGAL [A15Y],2.03
20,RFQDLVLRMLEYEPWARISPLGAL [A15W],5.07
21,RFQDLVLRMLEYEPAMRISPLGAL [A16M],1.85
22,RFQDLVLRMLEYEPAPRISPLGAL [A16P],1.44
23,RFQDLVLRMLEYEPAKRISPLGAL [A16K],2.35
24,RFQDLVLRMLEYEPAFRISPLGAL [A16F],1.02

row,Variant,protein stability index
1,RFQDLVLRMLEYEPANRISPLGAL [A16N],3.65
2,RFQDLVLRMLEYEPACRISPLGAL [A16C],3.04
3,RFQDLVLRMLEYEPAERISPLGAL [A16E],1.36
4,RFQDLVLRMLEYEPATRISPLGAL [A16T],2.28
5,RFQDLVLRMLEYEPAARISPLGDL [A23D],1.42
6,RFQDLVLRMLEYEPAARISPLGGL [A23G],2.75
7,RFQDLVLRMLEYEPAARISPLGTL [A23T],2.04
8,RFQDLVLRMLEYEPAARISPLGFL [A23F],1.59
9,RFQDLVLRMLEYEPAARISPLGHL [A23H],2.52
10,RFQDLVLRMLEYEPAARISPLGQL [A23Q],2.06
11,RFQDLVLRMLEYEPAARISPLGRL [A23R],2.45
12,RFQDLVLRMLEYEPAARISPLGYL [A23Y],2.71
13,RFQDLVLRMLEYEPAARISPLGML [A23M],2.25
14,RFQDLVLRMLEYEPAARISPLGKL [A23K],1.29
15,RFQDLVLRMLEYEPAASISPLGAL [R17S],2.69
16,RFQDLVLRMLEYEPAACISPLGAL [R17C],2.25
17,RFQDLVLRMLEYEPAAYISPLGAL [R17Y],3.04
18,RFQDLVLRMLEYEPAAGISPLGAL [R17G],2.29
19,RFQDLVLRMLEYEPAAIISPLGAL [R17I],4.01
20,RFQDLVLRMLEYEPAANISPLGAL [R17N],1.46
21,RFQDLVLRMLEYEPAAFISPLGAL [R17F],1.77
22,RFQDLVLRMLEYEPAADISPLGAL [R17D],1.91
